# Data as given in the nanobody polyreactivity screen of Harvey et al. (2022).
# Experiment: yeast display, Sf9 membrane polyspecificity reagent, FACS + sequencing; frameworks hold sequencing errors
# In short: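 Genes from sorted yeast were amplified by colony PCR, read by MiSeq 2 × 250 sequencing and filtered on CDR length. These cells carried a synthetic nanobody library in Saccharomyces cerevisiae BJ5465 and were sorted by FACS into low and high (top ~1%) gates on anti-HA and streptavidin fluorescence. Polyreactivity is labelled according to the gate of origin.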
row,Sequence,polyreactivity (PSR sort gate)
1,QVQLVESGRGLVQAGGTLRLSCAASGFIFATNTMGWYRQAPGKERELVAASSTYYADSVKGRFTISRDNAKNTVYLQMNSLKPEDTAVYYCNADRDSYIGFVDWAGEYWGQGTQVTVSS,low polyreactivity
2,QVQLVESGGGLVQAGGSLRLSCAASGSIFSGNAMGWYRQAAGKERELVAVITYRSSRTYYADSVKGRFTISRDNAKNTVYLQMNSLKPEDTAVYYCAAYSNRVVKGYGYWGQGTQVTVSS,high polyreactivity
3,QVQLQVSGGDLLQAGGSLRLSCAASGTIYGHTSMGWYRQAPGKEREFVAAITDGGNTNYADSVKGRFTISRDNAINTVYLQMISLKPEDTAVYYCEVLFSDVAYYAYWGQGTQVTVSS,low polyreactivity
4,QVQLVESGGGLVQAGGSLRLSCAASGSIFGVNALGWYRQAPGKERELVASITGGDSTNYADSVKGRFTISRDNAKNTVYLQMNSLKPEDTAFYYCAKDHYYRYEEGDYWGQGTQVTVSS,low polyreactivity
5,QVQLVESGGGLVQAGGSLRLSCAASGSKFWGYAMGWYRKAAGKERELVAAITDSGGRTYYADSVKGRFTISRDNEKNTVYLQMNSLKPEDTAVYYCAADYYSQYYYYAVPDRDYWGQGTQVTVSS,low polyreactivity
6,QVQLVESGGGLLQAGGILRLSCAASGRTFGLYAMRWYRQAPGKERELVAAIRGSAGSTYYADSVKGRFTISRDNAKNTVYLQMNSLKPEDTAVYYCATVGYPSLWYGYGYWGQGTQVTVSS,low polyreactivity
7,QVQLVESGGGLVQAGGSLRLSCAASGITFSRYAMGWYRQAPGKERELVAAITARGGTTYYADSVKGRFTISRDNAKNTVYLQMNSLKPEDTAVYYCAAYKTYGSKYVFVDPGEYDYWGQGTQVTVSS,high polyreactivity
8,QVQLVESGGGLVQAGGRLRLSCAASGSTFVKNTMGWYIQPPGKERELVAAISSRGGSTYYADSVKGRFTISRDNEKNTVYFQMNSLKPEDTAVYYCAKDGRVSRDFDYWGQGTQVTVSS,low polyreactivity
9,QVQLVESGGGVVQAGGSLRLSCAASGRNFGHYTMGWYRQAPGIERELVARISQSGGSTRYADSVKGRFTISRDNAKNTVYLQMNSLKPEDTAVYYWATYRRHFFYFAIPGYSSAYEYSGQGTQVTVSS,high polyreactivity
10,QVQLVESGGGLFQAGGSLRLSCAASGRIFPYKVMGWYRQAPGKERELVAAISSGGTTDYADSVKGRFTISRDNAKNTVYLQMNSLKPEDTAVYYCASTYVYWTWGYDYWGQGTQVTVSS,low polyreactivity
11,QFQLLESGGGVVHAAGSLRLSCAASGLIFPIYAMGWYRQAPGKERELVAVISSSGGSTNYADSVKGRFTISRDNAKNTVYLQMNSLKPEDTAVYYCAARYLQGRYDYWGQGTQVTVSS,high polyreactivity
12,QVQLVESGGGLVQAGGSLRLSCAASGSTLWSNTMGWYRQAPGKERELVDAISSGGGSTYADSVKGRFTISRDNAKNTVYLQMNSLKPEDTAVYYCAASAYYYRHSSWHRRDYWGQGTQVTVSS,high polyreactivity
13,QVQLVESGGGLVQAGGSLRLSCAASGSIFGGYAMGWYRQAPGKERELVAVISSGGSTNYADSVKGRFTISRDNAKNTVYLQMNSLKPEDTAVYYCAATVIYAYRGHFYQYDYWGQGTQVTVSS,high polyreactivity
14,QVQLVESGGGLVQAGGSLRLSCAASGRIFVRYARGWYSQAPGKERELVAAITSGGRTSYADSVKGRFTISRDNAKNTVYLQMNSLKPEDTAVYYWNVVSRNSIRFDYWGQGTQVTVSS,high polyreactivity
15,QVQLVESGGGLVQAGGSLRLSCAASGRIFPYYDMGWYRQAPGKERELVAAITSSGSTFYADSVKGRFTISRDNAKNTVYLQMNSLKPEDTAVYYCNTRDIRVRPYDYWGQGTQVTVSS,low polyreactivity
16,QVQLVESGGGLVQAGGSLRLSCAASGSIFSYYVMGWYRQAPGKERELVARINWSSTSTYYADSVKGRFTISRDNAKNTVYLQMNSLKPEDTAVYYCAAAKRYGRYYEYDYWGQGTQVTVSS,high polyreactivity
17,QVQLVESGGGLVQAGGSLRLSCAASGRTVVTNAMGWYRQAPGKERELVATINWSGGRTHYADSVKGRFTISRDNAKITVYLQMNSLIPEDTAVYYCAKASSRRYWTIRDGDYWGQGTQVTVAS,low polyreactivity
18,QVQLVESGGGLVQAGGSLRLSCAASGFIFAEYAMGWYRQAPWKERELVAAITRSGGRTYYADSVKGRFTISRDNAKNTVYLQMNSLKPEDTAVYYCAAGLGYPRLYYCGQGTQVTVSS,high polyreactivity
19,QVQLEESGGGLVQAGGSLRLSCAASGFIFDYYMGWYIQAPGKERELVARISYTGGSTYYADCVKGRFTISRDNAKNTVYLQMNSLKPEDTAVYYCATRGAEAERFASYDFDYWGQGTQVTVSS,low polyreactivity
20,QVQLVESGGGLVQAGGSLRLSCAASGRIFWSNAMGWYRQAPGKERELVAAITWRGGSTYADSVKGRFTISRDNAKNTVYLQMNSLKPEDTAVYYCAASPSGWRYDYWGQGTQVTVSS,high polyreactivity
21,QVQLVESGGGLVQAGGSLRLSCAASGFICYFYAMGWYRQAPGKERELVAVITQSGGSTYYADSVKGRFTISRDNAKNTVYLQMNSLKPEDTAVYYCNADTVRYYPFFSVRYYYWGQGTQVTVSS,low polyreactivity
